Assay results from article PMC7961048 (2021).
Non-standard residues stand in square brackets, D forms with d. No end group written: not given here. *: point of attachment. Biotin = O=C1N[C@H]2[C@H](CS[C@H]2CCCCC(=O)*)N1; pT = C[C@@H](OP(=O)(O)O)[C@H](N)C(=O)O; ttds = NCCCOCCOCCOCCCNC(=O)CCC(=O)*

Tests used:
[1] = target: T1, unfused 14-3-3β devoid of the flexible C-terminal tail (human); assay: FP
T1 chain: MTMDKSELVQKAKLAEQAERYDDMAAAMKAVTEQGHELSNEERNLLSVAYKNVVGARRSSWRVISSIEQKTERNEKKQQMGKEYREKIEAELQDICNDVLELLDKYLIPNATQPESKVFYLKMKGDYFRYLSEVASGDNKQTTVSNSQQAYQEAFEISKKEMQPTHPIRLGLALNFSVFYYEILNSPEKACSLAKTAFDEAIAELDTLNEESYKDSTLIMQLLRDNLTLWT

[2] = target: T2, full-length human 14-3-3τ fused to the C terminus of MBP (human, UniProt P27348 1-245); assay: FP
T2 chain: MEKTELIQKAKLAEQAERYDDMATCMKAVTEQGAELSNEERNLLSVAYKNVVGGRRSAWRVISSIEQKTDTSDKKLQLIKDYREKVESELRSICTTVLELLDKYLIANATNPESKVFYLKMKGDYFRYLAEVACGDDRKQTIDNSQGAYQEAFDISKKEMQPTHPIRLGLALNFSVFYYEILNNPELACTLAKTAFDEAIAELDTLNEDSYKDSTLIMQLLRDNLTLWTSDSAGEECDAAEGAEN

[3] = target: T3, full-length human 14-3-3η fused to the C terminus of MBP (human, UniProt Q04917 1-246); assay: FP
T3 chain: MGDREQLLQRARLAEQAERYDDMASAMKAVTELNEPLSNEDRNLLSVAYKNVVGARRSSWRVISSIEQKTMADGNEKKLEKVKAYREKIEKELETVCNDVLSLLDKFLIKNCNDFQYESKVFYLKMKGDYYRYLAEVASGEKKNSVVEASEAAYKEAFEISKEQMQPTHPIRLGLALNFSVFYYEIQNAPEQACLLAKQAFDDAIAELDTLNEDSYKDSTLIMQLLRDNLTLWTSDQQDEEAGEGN

[4] = target: T4, unfused 14-3-3ε devoid of the flexible C-terminal tail (human); assay: FP
T4 chain: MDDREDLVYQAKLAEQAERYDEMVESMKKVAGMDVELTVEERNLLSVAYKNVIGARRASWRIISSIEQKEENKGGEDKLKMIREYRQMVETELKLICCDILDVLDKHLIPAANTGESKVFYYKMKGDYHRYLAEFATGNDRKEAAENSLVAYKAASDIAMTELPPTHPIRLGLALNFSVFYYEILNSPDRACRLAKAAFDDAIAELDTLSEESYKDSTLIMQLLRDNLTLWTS

[5] = target: T5, full-length human 14-3-3β fused to the C terminus of MBP (human, UniProt P31946 1-246); assay: FP
T5 chain: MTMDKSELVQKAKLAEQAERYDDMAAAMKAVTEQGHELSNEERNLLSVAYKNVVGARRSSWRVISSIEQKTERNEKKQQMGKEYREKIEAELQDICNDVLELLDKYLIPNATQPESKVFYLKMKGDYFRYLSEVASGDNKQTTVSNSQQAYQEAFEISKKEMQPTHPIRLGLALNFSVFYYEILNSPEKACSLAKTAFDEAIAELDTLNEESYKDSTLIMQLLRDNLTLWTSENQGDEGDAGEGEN

[6] = target: T6, full-length human 14-3-3γ fused to the C terminus of MBP (human, UniProt P61981 1-247); assay: FP; with FSC
T6 chain: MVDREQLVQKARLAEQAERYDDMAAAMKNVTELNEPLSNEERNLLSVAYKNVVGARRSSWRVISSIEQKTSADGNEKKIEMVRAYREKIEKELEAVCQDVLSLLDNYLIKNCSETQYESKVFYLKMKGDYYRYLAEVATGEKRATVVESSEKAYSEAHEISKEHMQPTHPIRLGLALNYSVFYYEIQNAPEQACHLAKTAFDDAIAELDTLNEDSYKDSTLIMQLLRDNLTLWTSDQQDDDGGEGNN

[7] = target: T7, full-length human 14-3-3σ fused to the C terminus of MBP (human, UniProt P31947 1-248); assay: FP
T7 chain: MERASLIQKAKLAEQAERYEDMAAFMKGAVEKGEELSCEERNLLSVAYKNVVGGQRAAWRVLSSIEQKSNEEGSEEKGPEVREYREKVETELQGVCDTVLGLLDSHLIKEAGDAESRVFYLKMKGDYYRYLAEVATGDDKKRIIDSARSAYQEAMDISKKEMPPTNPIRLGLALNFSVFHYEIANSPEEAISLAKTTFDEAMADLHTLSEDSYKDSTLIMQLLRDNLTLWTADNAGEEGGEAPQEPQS

[8] = target: T8, full-length human 14-3-3ζ fused to the C terminus of MBP (human, UniProt P63104 1-245); assay: FP; with FSC
T8 chain: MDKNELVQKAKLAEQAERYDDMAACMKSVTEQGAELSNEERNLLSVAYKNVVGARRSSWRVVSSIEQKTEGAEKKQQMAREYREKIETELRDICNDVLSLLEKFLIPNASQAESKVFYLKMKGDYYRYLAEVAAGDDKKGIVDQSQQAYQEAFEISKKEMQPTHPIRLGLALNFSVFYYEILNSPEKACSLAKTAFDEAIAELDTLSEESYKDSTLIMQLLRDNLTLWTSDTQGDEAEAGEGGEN

Row | Binder | Kd [1] | Kd [2] | Kd [3] | Kd [4] | Kd [5] | Kd [6] | Kd [7] | Kd [8]
1 | {Biotin-ttds}-SSRTRRE[pT]QL [HPV16 E6 phospho-PBM peptide p16E6] | 148 µM | 144 µM | 80.5 µM | 186 µM | 159 µM | 91.7 µM |  | 
2 | {Biotin-ttds}-RLQRRRE[pT]QV [HPV18 E6 phospho-PBM peptide p18E6] | 42.3 µM | 37.8 µM |  | 66.2 µM | 42.2 µM | 19.3 µM | 139 µM | 37.3 µM
